Experiments:
[1] = target: HPV-16 E7 wild type (E7WT) expressed by RMA-E7 transfectants (HPV-16) (UniProt P03129)
[2] = target: HPV-16 E7 wild type (E7WT) expressed by RMA-E7 transfectants (HPV-16) (UniProt P03129); remark: listed apart in the source

How did the 51Cr-release assay (after 1st in vitro restimulation), specific lysis [1] turn out when “in vitro restimulated spleen cells of C57BL/6 mice inoculated with RPBLAs containing RX3-Gfp (cells without a defined receptor)” was run?
The 51Cr-release assay (after 1st in vitro restimulation), specific lysis was 12%.

With “in vitro restimulated spleen cells of C57BL/6 mice inoculated with the DNA vaccine pTHamp-E7SH (cells without a defined receptor)” as the substance, how does the 51Cr-release assay (after 1st in vitro restimulation), specific lysis [1] read?
Its 51Cr-release assay (after 1st in vitro restimulation), specific lysis is 26%.

“in vitro restimulated spleen cells of C57BL/6 mice inoculated with the empty plasmid pTHamp (cells without a defined receptor)” was tested. Which 51Cr-release assay (after 1st in vitro restimulation), Specific Lysis (%) [2] did it give?
Its 51Cr-release assay (after 1st in vitro restimulation), Specific Lysis (%) is 8%.

Which 51Cr-release assay (after 1st in vitro restimulation), Specific Lysis (%) [2] does the source give for “in vitro restimulated spleen cells of C57BL/6 mice inoculated with RPBLAs containing RX3-E7SH and incomplete Freund's adjuvant (cells without a defined receptor)” here?
The 51Cr-release assay (after 1st in vitro restimulation), Specific Lysis (%) was 29%.

For “in vitro restimulated spleen cells of C57BL/6 mice inoculated with RPBLAs containing RX3-E7SH (cells without a defined receptor)”, which 51Cr-release assay (after 1st in vitro restimulation), Specific Lysis (%) [2] is on record?
Its 51Cr-release assay (after 1st in vitro restimulation), Specific Lysis (%) is 33%.
